Data on one substance can be found in paper PMC5238724.

This test has as its target Drosophila protamine B (Prot B), untagged recombinant (Drosophila). In words: non-reducing SDS-PAGE of disulfide-linked oligomers.

One may read the stoichiometry N as the number of molecules, sites or subunits per partner or assembly.

In the case of “Drosophila protamine B (Prot B), untagged recombinant (natural protein)”, the stoichiometry N stood at 2.
